From US11180770B2, “HPPD variants and methods of use” (BASF Agricultural Solutions Seed US LLC, priority 2017, dated 2021)
Positions count from the first letter of the chain named.

B1: 49 (protein)
chain: MADLYENPMGLMGFEFIEFASPTPGTLEPIFEIMGFTKVATHRSKNVHLYRQGEINLILNNEPNSIASYFAAEHGPSVCGMAFRVKDSQKAYNRALELGAQPIHIDTGPMELNLPAIKGIGGAPLYLIDRFGEGSSIYDIDFVYLEGVERNPVGAGLKVIDHLTHNVYRGRMVYWANFYEKLFNFREARYFDIKGEYTGLTSKAMSAPDGMIRIPLNEESSKGAGQIEEFLMQFNGEGIQHVAFLTDDLVKTWDALKKIGMRFMTAPPDNYYEMLEGRLPDHGEPVDQLQARGILLDGSSVEGDKRLLLQIFSETLMGPVFFEFIQRKGDDGFGPHSFKVLFEQMERDQVRRGVLTAD
modifications: mutant HPPD polypeptide
B2: 55 (protein)
chain: B1 chain with P268A, Q344S, M345K
modifications: mutant HPPD polypeptide
B3: 3 (protein)
chain: B1 chain with P268A, N270T, H336D, Q344S, M345I
modifications: mutant HPPD polypeptide
B4: 58 (protein)
chain: B1 chain with P268A, N270S, H336D, Q344S, M345I
modifications: mutant HPPD polypeptide
B5: 62 (protein)
chain: B1 chain with P268A, N270S, Q344S
modifications: mutant HPPD polypeptide
B6: 69 (protein)
chain: B1 chain with P268A, N270S, T315R
modifications: mutant HPPD polypeptide
B7: 51 (protein)
chain: B1 chain with P268A, H336D, Q344S, M345K
modifications: mutant HPPD polypeptide
B8: 60 (protein)
chain: B1 chain with M172I, V173D, P268A, N270S, H336D, Q344S, M345K
modifications: mutant HPPD polypeptide
B9: 50 (protein)
chain: B1 chain with P268S
modifications: mutant HPPD polypeptide
B10: 59 (protein)
chain: B1 chain with P268A, N270S, H336D, M345K
modifications: mutant HPPD polypeptide
B11: 71 (protein)
chain: B1 chain with P215L, N270T, H336F, S337N, V340E, Q344S, M345I
modifications: mutant HPPD polypeptide
B12: 65 (protein)
chain: B1 chain with P268A, N270S, T315R, Q344S
modifications: mutant HPPD polypeptide
B13: 4 (protein)
chain: B1 chain with P268G, N270T, H336D, Q344S, M345I
modifications: mutant HPPD polypeptide
B14: 52 (protein)
chain: B1 chain with P268A, H336D, M345I
modifications: mutant HPPD polypeptide
B15: 68 (protein)
chain: B1 chain with P268A, N270S, T315Q
modifications: mutant HPPD polypeptide
B16: 66 (protein)
chain: B1 chain with R213K, P268A, N270S
modifications: mutant HPPD polypeptide
B17: 61 (protein)
chain: B1 chain with P268A, N270S, Q344S, M345I
modifications: mutant HPPD polypeptide
B18: 2 (protein)
chain: B1 chain with N270T, H336W, S337N, K339A, V340Q, Q344S, M345I
modifications: mutant HPPD polypeptide
B19: 54 (protein)
chain: B1 chain with P268A, H336D, M345K
modifications: mutant HPPD polypeptide
B20: 5 (protein)
chain: B1 chain with N270T, H336D, Q344S, M345I
modifications: mutant HPPD polypeptide
B21: 56 (protein)
chain: B1 chain with P268A, M345I
modifications: mutant HPPD polypeptide
B22: 67 (protein)
chain: B1 chain with R213K, P268A, N270S, T315R
modifications: mutant HPPD polypeptide
B23: 63 (protein)
chain: B1 chain with R213K, P215A, P268A, N270S, M345I
modifications: mutant HPPD polypeptide
B24: 64 (protein)
chain: B1 chain with P268A, N270S
modifications: mutant HPPD polypeptide
B25: 53 (protein)
chain: B1 chain with P268A, H336D, M345V
modifications: mutant HPPD polypeptide
B26: 70 (protein)
chain: B1 chain with R213K, P268A, N270S, T315Q
modifications: mutant HPPD polypeptide
B27: 57 (protein)
chain: B1 chain with P268A, M345K
modifications: mutant HPPD polypeptide

Test system: HPPD polypeptides
Assay: coupled HPPD activity assay: turnover and residual turnover in crude extracts
Type: biochemical, Pseudomonas fluorescens
Conditions: for Residual turnover [%]: 100 μM Cmpd. 1, signal change with inhibitor divided by signal change without inhibitor; for Turnover: absence of Cmpd. 1, kinetic changes in absorbance (OD) at 320 nm, 30 min; for Turnover / Residual turnover: high substrate concentration; for Residual turnover: presence of 100 μM Cmpd. 1, changes in absorbance (OD) at 320 nm
Procedure: The activity of HPPD polypeptides was determined in absence or presence of HPPD inhibitors using the coupled HPPD activity assay (FIG. 1).
For the determination of the residual activity, the apparent kinetic constant (kapp) of the determined substrate conversion was measured as kinetic changes in absorbance (OD) at 320 nm in a coupled assay, in that homogentisate (HGA) formed by HPPD from HPP is directly converted into the well absorbing molecule maleylacetoacetate (MAA) by a second enzyme homogentisate dioxygenase (HGD), applied in excess uniformly in all assays (see FIG. 1). The measurements were performed in 384 micro titer plates (Greiner Bio-One GmbH, Frickenhausen, Germany) by plate readers (Tecan infinite M1000 or M1000PRO, Tecan, Männedorf, Switzerland). The kcat/kM ratio of an enzymatic activity is proportional to the apparent kinetic constant kapp and is proportional to kcat/kM*[E] ([E]=enzyme concentration). […] As both kapp measurements in the presence and absence of inhibitor were performed by use of the identical enzyme sample, crude or purified, and thereby at the same enzyme concentration, the enzyme concentration eliminates from the calculation of residual activity and the ratio of both kapp directly indicates the change of kM due to the inhibition.
The assay solution used for determination of residual activities in raw HPPD polypeptide samples was composed by 200 mM sodium phosphate (Merck, Darmstadt, Germany, pH 7.0), 5 mM MgCl2 (Merck, Darmstadt, Germany), 20 mM ascorbate (Sigma-Aldrich, St. Louis, USA), 1 mM DTT (Sigma-Aldrich, St. Louis, USA), 0.1% Pluronic F-68 (Sigma-Aldrich, St. Louis, USA), 40 μM FeSO4 (Sigma-Aldrich, St. Louis, USA), about 8 mg/ml purified HGD and 500 μM HPP from a 1 M stock solution in DMSO (Sigma-Aldrich, St. Louis, USA) and equilibrated for 20 min on ice. For every HPPD polypeptide sample two assays were performed in quadruplets, whereby 5 μl of HPPD polypeptide sample were mixed firstly with 5 μl buffer (1×BugBuster®; (Merck, Darmstadt, Germany); in 140 mM Tris, pH 7.8, with 1:25000 diluted BNase®; Qiagen, Hilden, Germany)) or 5 μl inhibitor diluted in the same buffer from a 0.1 M stock solution in DMSO (200 μM resulting in 100 μM in the HPPD polypeptide/inhibitor sample) in the reference and inhibition assay, respectively, and subsequently with 10 μl assay solution. The change in absorbance at 320 nm was followed in 1 min intervals for 30 min. The kapp values were calculated as signal slope over time in the early phase of the kinetic reaction, usually for the first 5-10 minutes of the measurements. Additionally and according to the calculated residual activity, the total conversion, i.e. the absolute change in signal, in the 30 min timeframe was monitored as measure of turnover, and a residual turnover was calculated by dividing the change in signal in the presence of inhibitor by the change in signal in the reference sample without inhibitor.
Residual turnover were determined according to Example 3 by measuring total change in signal in the presence and absence of Cmpd. 1 (2-chloro-3-(methylsulfanyl)-N-(1-methyl-1H-tetrazol-5-yl)-4-(trifluoromethyl)benzamide). For each mutant HPPD polypeptide, the total change in signal without HPPD inhibitor herbicides served for normalization of the total change in signal in the presence of the herbicide.

Molecule	Residual turnover [%]	Turnover	Residual turnover
B1	33%	0.316	0.103
B2	50%	0.189	0.095
B3	64%	0.096	0.061
B4	45%	0.144	0.065
B5	37%	0.308	0.115
B6	66%	0.36	0.237
B7	56%	0.131	0.074
B8	45%	0.103	0.046
B9	44%	0.315	0.138
B10	56%	0.131	0.074
B11		0.044	0.022
B12	54%	0.327	0.177
B13	44%	0.126	0.055
B14	47%	0.189	0.088
B15	64%	0.346	0.223
B16	56%	0.336	0.187
B17	40%	0.229	0.091
B18		0.060	0.026
B19	66%	0.089	0.059
B20	38%	0.157	0.059
B21	57%	0.152	0.086
B22	64%	0.335	0.215
B23	68%	0.23	0.156
B24	47%	0.242	0.114
B25	54%	0.199	0.107
B26	71%	0.338	0.240
B27	59%	0.167	0.099
